Here are results for two molecules from patent US20050054833A1 (published 2005).

The target in assay [1] is T1, human CD23 (low affinity receptor for IgE, FceRII/CD23) on 8866 cells (human, UniProt P06734 1-321).
T1 construct: whole, on cells; Target of the first step cell ELISA (glutaraldehyde-fixed 8866 cells); also called cellular CD23; FCEL
T1 sequence (looked up): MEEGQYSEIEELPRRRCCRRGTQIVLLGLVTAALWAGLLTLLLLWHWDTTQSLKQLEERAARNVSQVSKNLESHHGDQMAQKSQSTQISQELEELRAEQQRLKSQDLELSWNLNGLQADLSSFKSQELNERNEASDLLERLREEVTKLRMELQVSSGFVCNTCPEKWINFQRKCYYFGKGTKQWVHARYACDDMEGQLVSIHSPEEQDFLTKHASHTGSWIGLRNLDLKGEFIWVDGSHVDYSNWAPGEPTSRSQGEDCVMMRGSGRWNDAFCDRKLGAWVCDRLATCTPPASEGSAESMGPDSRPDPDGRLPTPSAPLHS
Nature of the assay: cell ELISA on 8866 cells.

The target in assay [2] is T1, human CD23 (low affinity receptor for …). Nature of the assay: cell ELISA on fixed 8866 cells, hybridoma supernatant. The procedure:
The first step of the ELISA comprised the transferral of fifty microliters of supernatant from each well to ninety-six well plates which had previously been coated with 10⁵ 8866 cells (CD23 positive cell line) per well. These plates were made by first coating the plates with 50 μl of aqueous solution containing twenty μg/ml Poly L-Lysine (Sigma Catalog #P1399, MW 150,000-300,000) for thirty minutes at room temperature. The remaining solution was removed (“flicked out”) and the plates left to dry. Once dry, fifty μl of 8866 cells in PBS were transferred and spun at 600 g for five minutes. The 8866 cells were covalently bound to the plate by adding fifty μl 0.5% glutaraldehyde (Sigma Catalog #G6257) in phosphate buffered saline (PBS) for 15 minutes. The glutaraldehyde was removed (flicked out) and the plates blocked with one hundred fifty μl 100 mM glycine (Sigma Catalog #G-2879) in 0.1% BSA-PBS. […] The presence of the HRPO was detected by a color development after the addition of a TMB reagent (Kirkegaard & Perry, Gaithersburg, Md., Catalog #50-76-02 and 50-65-02), 100 μl/well. […] Optical density (OD) was measured at […] on a spectrophotometer (Titertek Multiscan). The OD values greater than two times the background were scored as positive.

B1: primate anti-human CD23 monoclonal antibody 5E8 (antibody, V domains shown)
VH: EVQLVESGGGLAKPGGSLRLSCAASGFRFTFNNYYMDWVRQAPGQGLEWVSRISSSGDPTWYADSVKGRFTISRENANNTLFLQMNSLRAEDTAVYYCASLTTGSDSWGQGVLVTVSS
VL: DIQMTQSPSSLSASVGDRVTITCRASQDIRYYLNWYQQKPGKAPKLLIYVASSLQSGVPSRFSGSGSGTEFTLTVSSLQPEDFATYYCLQVYSTPRTFGQGTKVEIK
modifications: N-linked oligosaccharide at the asparagine of the heavy chain variable region glycosylation site (Kabat 75)
notes: Monoclonal antibody from a cynomolgus macaque heterohybridoma; also called primate 5E8
Take B1: the binding result in assay [1] is “binds”.

B2: primate anti-human CD23 monoclonal antibody 6G5 (antibody, V domains shown)
VH: QLQLQESGPGVVKPSETLSLTCAVSGGSVSSSNWWTWIRQPPGKGLEWIGRISGSGGATNYNPSLKSRVIISQDTSKNQFSLNLNSVTAADTAVYYCARDWAQIAGTTLGFWGQGVLVTVSS
VL: QSAPTQPPSVSGSPGQSVTISCTGTSDDVGGYNYVSWYQHHPGKAPKLMIYDVAKRASGVSDRFSGSKSGNTASLTISGLQAEDEADYYCCSYTTSSTLLFGRGTRLTVLG
notes: Monoclonal antibody from a cynomolgus macaque heterohybridoma; also called primate 6G5
Take B2: in assay [2], the binding result is “binds”.
